Source: the DeepSol protein solubility set

assay: soluble on expression in E. coli; label from the status in PepcDB or PDB records

With “MINSKVKPQAVVADAHEDTIRSLYMESLHLVERLHRRLLDVIKDEFDRQGRDDVNAVQALLLFNIGNSELTAGELRSRGYYLGSNVSYNVKKLVDLGLINHQRSRVDRRSVRISLTEEGQAIAETVARLYERHVGSIEKVGGIGTGEFSEMNKLLQRLDRFWNDSIAYRL” as the sequence, how does the “soluble on expression in E. coli” value read?
Its value is “not soluble”.

For “MVLPERDSPCGWTRMIPLPSDGSVSIAGRSPRLNVEAVEAVVTLPTFKRPEQVLDTLASLRAQRTGRRFAVIVMENEAEVREGAKAVLPLFERGEMPGMVIVAQERGNCSAYNAGWQTAMLHFPNFRHLLVIDDDEIADPHWLERMCMAAETLGADIVGGPQVPVFADAAHARWAEHPVFAPPYRETGRVPALYSSGNLLVGRNVLVAMEPPFLDLKFNFMGGGDSDFLSRAVQNGFVLGWCAEAKVRETVPARRVEPDWIRARSLRNGVISTLVEKKKRAGTPLAGAEVLAKSLALLAAAPFRGLIRLARTGSPAIAIYPVHVALGRVLAEFGYANEQYRQPEKN”, which “soluble on expression in E. coli” value is on record?
Its value is “not soluble”.

Which “soluble on expression in E. coli” value does the source give for “MGSDKIHHHHHHMHNSLVRELVQAGRRTSCLGLTNGKMGIVIALFRYARLSGELTCEDVGCELLDEIYEHLDSSIPISFGSGLWGIGWGIEYLIQNSYMEGDADEVLKDIDQCAARCIHAYGMSGLSLNNGIVGLGRYILIRIIPTFLKGDTVSSAFLKEYLIYLIDWLEERLEYTNESIDDLLDFLFDLYPTGFYRTKVSVLIEKCMNRYNL” here?
The value was “not soluble”.

With “MPTTQINIVLAEPRCMAGEFFNAKVLLDSSDPDTVVHSFCAEIKGIGRTGWVNIHTDKIFETEKTYIDTQVQLCDSGTCLPVGKHQFPVQIRIPLNCPSSYESQFGSIRYQMKVELRASTDQASCSEVFPLVILTRSFFDDVPLNAMSPIDFKDEVDFTCCTLPFGCVSLNMSLTRTAFRIGESIEAVVTINNRTRKGLKEVALQLIMKTQFEARSRYEHVNEKKLAEQLIEMVPLGAVKSRCRMEFEKCLLRIPDAAPPTQNYNRGAGESSIIAIHYVLKLTALPGNGVLY” as the sequence, how does the “soluble on expression in E. coli” value read?
Its value is “not soluble”.

With “GETASSLWIDAAVAVSVPFQLNSVADRMNQGFSRLYQAYLLSRLRRIFLKKLNHLNNSPFSKSDLLSLKTFWDFDERITAPINGFKNAHEYYQKASSRQYLKNITTPTLIIHAQDDPFMTPDAIPASKELSSQTTLELSEYGGHVGFIAGTGKNSSQPVYWLEQRIPEFLLEYLS” as the sequence, how does the “soluble on expression in E. coli” value read?
The value was “not soluble”.

With “MAHHHHHHMRKKGSGFIGGKLNLKIKKKKKNAKQEARHGEASHVDSVAKSGEAVQVKSDPSEHDGKKDGSEKIIKGTGRITTEKNTVRGVRTDFMAEIKEGYDIILENPSTFRNERRTVTSVLSNKTLLVHEEFTTDISTTCAFYIASGGKSGGKPVGQPADTPEAHIGVEYAKVFEQTSRQDQVEVREKTGLWSYRVVKKKVDGRLTNEEKLDMRVRSGRDKFCW” as the sequence, how does the “soluble on expression in E. coli” value read?
The value was “not soluble”.

With “MDCKELARIFYALSEPKRLCMVKLLLEREELCVCDFMRIFKESQPKISFHLKVLREAGLVTSQKRGKWNYYRLNKEAPVIPCVEKLLKDVKLEEKIQLEVKR” as the sequence, how does the “soluble on expression in E. coli” value read?
Its value is “soluble”.

With “MSLKTIITNLKVYILKGPKEKRPHWVSNFIVPNANELLVILETNQGVEGFGLATSYTDMSPIVHVIESGISEKILGCNPLEPEMLYQSLFNLTASRLAYEKGWSREALIRVSAAVDIACWDIIGKISGLPLYQLFGGFRNKVPCYVTCAYYREGKDHAELKDEIQMLVDQGHQGFKAKVGGLSLAEDLERMELVREIIGPERDLMIDVNRAWDLKTAIEGARLLEPLKPTWLEEPVRWMDDRRELKILAQHTSIPLSGGESESTSYGCRTMIDEKAIQILQFDCTMFGGFTEGRKMTALCDLNHVDVAPHHDCFIHAPLVASSPAGRIVESFTDPERDPLQAELFENPPNIEKGWLTLNEAQGLGLTLSENALAKFGTQIIEGHHHHHH” as the sequence, how does the “soluble on expression in E. coli” value read?
The value was “soluble”.

Which “soluble on expression in E. coli” value does the source give for “MGSDKIHHHHHHMTVEFDAARLGPILYYRGLEGDALQLAAMVMLPIGERPETLRTDAGDHAPTLLREIGRSAVWRYDFGLTPSCGSYRLGDQSYDVQTDLHGDMRIAFASCNGEEKGDLDRDQEERNRMWAHMCAEHRRAPFALLLQGGDQIYADEATEGHPLSEDWPDKAGRPRNAEELKDLADHLRLRFAERYVQALFGEAPSWIMARVPTLAIWDDHDICDGWGSLYRSKTHSEVGQCLYAVAREMYLLFQHAAVEGDIPDLFMDETGTSLSWQRALPGVKLLAPDLRAERGRRQVLGAYGWSAVEAMKPGSEHTFVISSVPLLGPRLSLVEGLMLMIPTMQKYEDDLRDQWQSRAHRKEWIRMLKQVIAWREEAPVTILSGEIHLATRAEMGPDETRVHQLVASGIAHRAPPQSYARSLGTLAGLGDAPVSGHPIRIHPLPGQSQRYTAERNYLELRRTHGKWHAVWHLEESGDTVPMVLE” here?
Its value is “not soluble”.

With “MSIAQQLMDMGFPADKAEAAAGNNRNLDQALDWIEKDGAGVPMETDAPAQAAPGAADSGAPPVAASFKCDDCGKLLANDDAIMFHASKTKHENFSESSEAIKPLTAEEKAAKVLEIREKIKVHQAKKAKLEAEENREKEKKRREDGKAMISHKEAARDREIREAAQDRRREKNEDEIARKRVLEQIRLDKEARKAKASGQPVPEAKPAPSAAPVAPPKDYSTTTLQFRLLDGQTVRQQFEANEPLAMVRAWVETNHANGVPFTLMTPFPRKVFTEDDMGTPLKVLNLVPSANVILNRAA” as the sequence, how does the “soluble on expression in E. coli” value read?
The value was “not soluble”.

With “MSLGLHITDQQVHRYMSQRRHHTQAVAAAKAGISERSARRIDKNPQLPSQKKRERHWRTRPDPLEQIWPRVEELLKIAGILSVTIFETVQDEFGEAAVPDGVRRTLERRIARWRALNGGEKEIFFPQHHEIGRQGLLDFTVADDLHVTIAGQRFDHRLFHFRLASSGWEDSAVVLGGESFTALSEHLQDALWKLGGVPAELRSDSLSAAYKNLDADAQRDFTRNYEALCRHYGMTPTRNNKGVAHENGSIEAPNGHLKRRMDQALRRRSSRDFPSIEDYRRFVDQEVAKQNRRRARLMDDERRVLKSLPPKRTTDFTLVSADVTRNSTISVDRVTYSVPSRLIGYRLHAHLYDDRVEFFLGPDQVMTADRVRVKHAERGHNIDFRHFIGNLKRKPQALRYLVYRNALFPTHAYTRAWQALDAALDARQACRDMVALLDIAANGNCVDALALRIEAALDRGKLPNVAKLKSEFLPTVRSRVDVTIPPPDFAGYNHLLANAQEGHHHHHH” as the sequence, how does the “soluble on expression in E. coli” value read?
The value was “not soluble”.

For “MSEEDWPSPKFREHVIQRLEPELARNRQNAPNLPVPGDARQVEEYVFAKCMSKDEYMRTIAKVINAINCNSKSAAVPSVLQPSQFHSPPCTTAGNTPAGGTPGYRAPVPPDPQPTSAQARNPPVTVATTQASTTPSAPNPPGGLPAPSASATAAVAAAVASFPSPDTSIRPGGQITPGSQAPGGGPTPAPNVPFPNGSSQMNGGPAMGQPPPQMGAPNMGGPPNGYGGYGMMNGPPGSGAPMGGNPYNQQIKKDMDQARPWDPSAHMYQQQPQWGAMPPQQPHGYPGRPMNGQGATPTGPSSVLESLINQPQQYPGHHNQMGPPGDRNVAAQRAAAQQQQQQQQQQQQQRPGMVPNQGMMSSEDQTVYSAKLRNMRGSCDSLRTRARQCRHEGNHEAAHKLEVMLSVLEGKRVVSLEYLNHLEMWIARKQDFLNIAPMSQNQNHMGMNDPMMNGEHAMLGNGQVPNPYGGHPGYGHQQYMGPPPPHMQMHQPPMWHQQQHQQQQRMMPQDHMMMQGGGGPVHGMYRGDMGHDPMTSPVNNHRHAPYPNPAAMRNNMRMPNGPGPIGRDRNSMSGSSMSGPSSGAPSMNPMGTPNQKMGTPGSMGGMSGLDDLNYDDFLPNPTPIDALQPTLHVGQNSMNAGPPVQRSNLNETARKELQILDARFEIDPNHQRHDANHIIVVCKIRNQQFPPLRLVVPTTYPAGNVTVDRAVIDLDAYLYDDLQNSVYERLSRPGLSSITDYLNAWEEQVNQYQNQTSGGLDVAFNVGNDFFYDNLNL”, which “soluble on expression in E. coli” value is on record?
The value was “not soluble”.

With “MSLKIESNAFRLIEPGVFKKDTLTHDFEEKDIIVKPTKASVCHADLRYYTGNRRPEALAKKLPMALFHEGIGIVEDSKHPDFQQGDKVVIVPNIPSHLRKGTYPTTSFQDNYDENAVFMGSGFDGICQDRMVVSGDNVVKVPTDLDEDVALLAELCSVSLFPINQLDEITTETSPQVAIFGDGPVGYLAATALHYIYGIDKANLIVFGAVQEKLAAFEDFATTHLVFDFDFNQYRGVHTVFECTGGKFSESAINQAIDLIDRQGHIVLMGVTEERVGINTRDVLEKGLTFSGSSRSTKREFEQLIHAFSNKQYQQALRQLIPETYYHIHDTSDLKEAMDDTAAHKGWKKTYLQYHEGHHHHHH” as the sequence, how does the “soluble on expression in E. coli” value read?
The value was “soluble”.

For “MAHHHHHHMILKEETVLRKTNAENLAAVRNLNLWGEGLTDVSIVSRLPRIEVLALAANKLTTLSPFAACTQLEELYLRRNNVASMLEIKYLRHLPKLHTLWLMDNPCARHPHYRQIVILCCRHLRHLDETEVSEKERAEAEKLLPEGMLQEMLESESAEAAVGTANKAQLQNRTPVSERKQPMGEVVQGGAIHETGAGRERGHRVTSSDTSGRGPSSAPERRQGSADDGLAQTAVQVQRAMFSSIMALVPELAVQTIEALQKELAEELCRRGKRLPPVVRDRT”, which “soluble on expression in E. coli” value is on record?
The value was “not soluble”.

Which “soluble on expression in E. coli” value does the source give for “GPGSMYTHTRMHTTSASATLLSLPLCVRASPTNTPAAQLSALSDHLGLRVIKTNNLHTSSRSNMPAKAAAKPVKPAAKAAPKPANKAPAPKAAAAKPVAKAAPKAAAPAARPASGSSNGVYVKNWGTGSVADAANVFSAAGKVVKVQLRRQRYAIVFFENSAAVKKAIDLFNEKEVLGKTVLVVPAKTSPKPDAHENSSCVFVSPIFRPSTTKAQVMELFAGVKVQRLRMYRQNFAYAYLDSPAAAKKFVEEKNGTEFRGHTLRVALSARSLEKLRARQEAANVVIAAHRHYKTHERQ” here?
The value was “not soluble”.

With “SLSPRRLRLLLVDENPTARAVIGRRLSHRHYDVTVVEDGFAAQKTLIIQPSDIILIDMDLQLLPAIGTMEKIRAAHPAGHACIVMIGGASDTPKMIAALDAGADDHIVKPFDFDMLDARLRRVHARAERVNLLSRQYAELDARIARRAMELGETRETLRQVELDRARLMASVDHLQAEVARLSAREG” as the sequence, how does the “soluble on expression in E. coli” value read?
The value was “soluble”.

For “MKEKISKKEYNALIRKTGEKHFDGEKEEYGDGTVGLWTYELRKYKLKPPVKVKYVTQEEFGEFKDATNQRLTKIENALVAQGEQIRAQGEQLSQLIKVVLLQGEQIKSQGEQIKSLEHHHHHH”, which “soluble on expression in E. coli” value is on record?
Its value is “not soluble”.

With “MGRIAVIGAGVAALAAARSLVLAGRRPLLIAPDREVISRGETLSPAAAALLDRLQWADLLDADSALPSEGRFSVWGDATLRQAAQGVGAWHLDRARFERQMRAKLDNDAIECHPIIVTMLVHHCDGVVLELGDGRVVFADAAIDCSGRAAVSSGAAAGRRRTDRLVAVWRVLDLPDDTEPAAATLIEAVPLGWWYMAPLPGDRMMLGLFTDTDLVPPGAAQDGATWTGLAASTVAIAPRLRSLGLDVSAAREPPQVAPAATVTASRLIEGRILRAGDAAAALDPLGANGLATALWSGMAAAEAALTLTEGEPERADAYERDYLQGIAQHLVSQQAMYAAEPRFADAPFWQRRRAVVSSHPQKETLPLEHHHHHH” as the sequence, how does the “soluble on expression in E. coli” value read?
The value was “not soluble”.

With “MKAFILAAGSGERLEPITHTRPKAFVPILSKPLIEYQIEYLRKCGIRDITVIVSSKNKEYFEKKLKEISIVTQKDDIKGTGAAILSAKFNDEALIIYGDLFFSNEKEICNIITLKENAIIGVKVSNPKDYGVLVLDNQNNLSKIIEKPEIPPSNLINAGIYKLNSDIFTYLDKISISERGELELTDAINLMAKDHRVKVIEYEGYWMDIGKPWNIIDVNKWALDNLVFSQNLGNVEDNVKIKGKVIIEEDAEIKSGTYIEGPVYIGKGSEIGPNSYLRPYTILVEKNKIGASVEVKESVIMEGSKIPHLSYVGDSVIAEDVNFGAGTLIANLRFDEKEVKVNVKGKRISSGRRKLGAFIGGHVRTGINVTILPGVKIGAYARIYPGAVVNRDVGYGEFFKV” as the sequence, how does the “soluble on expression in E. coli” value read?
Its value is “soluble”.

Which “soluble on expression in E. coli” value does the source give for “SLKGSSAQVLVVEGEQGLNNDLSHSLEANGYLVTQCFNGKALQKEGLDDQLDLIILGATSESTEADLIQSIVMLREAVSTPIMLLGQKDCVESRIAFYTAGVDDYLTKPVNFSEFLIRVAVILKRVCSDSQMPKHADLLSGLDFEMDKRKGCIRSDEVELLLTPVEFKLLWALVSSGGRVLTKAFLYRNVLNRDFVQHDRSVDVHISRLRAKLSGVGVDTSRLETVHGEGYCYKEG” here?
Its value is “soluble”.
